Source: patent US20240239881A1 (Innovent, published 2024)

Columns and labels:
human Ang2 = target: T1, human Ang2 (human, UniProt O15123 19-496, limits assumed); experiment: ForteBio BLI, antibody on AHQ sensor, 100 nM antigen, 1:1 model
T1 construct: also called hAng2; h Ang2
T1 sequence: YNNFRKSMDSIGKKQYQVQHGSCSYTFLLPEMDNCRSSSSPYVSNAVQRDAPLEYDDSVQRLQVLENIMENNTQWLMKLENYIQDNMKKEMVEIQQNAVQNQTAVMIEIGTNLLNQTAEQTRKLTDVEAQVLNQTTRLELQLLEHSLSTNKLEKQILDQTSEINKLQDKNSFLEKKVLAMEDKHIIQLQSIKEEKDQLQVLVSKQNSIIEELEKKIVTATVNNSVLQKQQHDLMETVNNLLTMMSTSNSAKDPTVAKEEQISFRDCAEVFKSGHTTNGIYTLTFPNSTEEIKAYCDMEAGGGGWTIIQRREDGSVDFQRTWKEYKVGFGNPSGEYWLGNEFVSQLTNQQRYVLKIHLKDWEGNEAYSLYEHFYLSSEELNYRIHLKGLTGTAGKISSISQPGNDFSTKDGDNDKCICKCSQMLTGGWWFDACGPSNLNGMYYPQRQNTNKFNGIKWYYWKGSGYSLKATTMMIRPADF
Description: The equilibrium dissociation constants (KD) of the above exemplary antibodies of the present invention binding to human Ang2 (h Ang2), cynomolgus monkey Ang2 (cAng2), murine Ang2 (mAng2), and human Ang1 (hAng1) were determined using the biological optical interferometry (ForteBio) assay.
The ForteBio affinity assay was performed according to the existing method (Estep, P et al., High throughput solution-based measurement of antibody-antigen affinity and epitope binning. MAbs, 2013.5 (2): p. 270-8). Briefly, the sensor was equilibrated in the assay buffer off-line for 30 min, followed by on-line detection for 60 s to establish the baseline. Then the purified antibodies obtained as described above were loaded on-line onto an AHQ sensor (ForteBio) for ForteBio affinity assay. The sensors with loaded antibodies were exposed to 100 nM of hAng2, cAng2, mAng2, and hAng1 antigens for 5 min, and then were transferred into the assay buffer for dissociation for 5 min to determine the dissociation rate. Kinetic analysis was performed using a 1:1 binding model.

[1] = target: T2, recombinant biotinylated hAngiopoietin-2 protein (R&D, Cat. No.: BT623B/CF) (human, UniProt O15123 19-496, limits assumed, biotinylated (sites not given)); experiment: blocking ELISA: antibody titrated against biotinylated hAng2 (300 ng/ml final); blocked binding to coated hTie2 protein; Avidin-HRP detection
T2 construct: Bought protein; also called Biotin Ang2; human biotin Ang2 protein
T2 sequence: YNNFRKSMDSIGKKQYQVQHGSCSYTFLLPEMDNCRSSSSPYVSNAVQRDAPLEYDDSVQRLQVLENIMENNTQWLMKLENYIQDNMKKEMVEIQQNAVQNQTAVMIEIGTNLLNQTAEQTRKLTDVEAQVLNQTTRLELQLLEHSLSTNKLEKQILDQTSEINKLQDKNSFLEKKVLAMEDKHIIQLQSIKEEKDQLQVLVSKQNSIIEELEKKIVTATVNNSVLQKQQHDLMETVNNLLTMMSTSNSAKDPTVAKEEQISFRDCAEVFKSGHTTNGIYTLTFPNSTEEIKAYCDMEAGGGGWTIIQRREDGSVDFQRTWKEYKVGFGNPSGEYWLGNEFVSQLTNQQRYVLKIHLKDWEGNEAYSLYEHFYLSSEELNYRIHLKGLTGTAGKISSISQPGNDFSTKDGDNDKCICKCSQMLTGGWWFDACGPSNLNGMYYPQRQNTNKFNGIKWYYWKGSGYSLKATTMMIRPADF
Description: The abilities of 81H10, 86E9, 107H7, hz81H10.4, Amhz81H10.4.30, Amhz81H10.4.49, and the control antibodies Nesvacumab and faricimab to block the binding of human Ang2 to hTie2 were determined by ELISA. Faricimab is a bispecific antibody drug undergoing a clinical trial and developed by Roche, which targets both angiopoietin-2 (Ang-2) and VEGF-A.
Then the plate was blocked using 5% BSA for 1 h. The biotinylated antigen, recombinant biotinylated hAngiopoietin-2 protein (R&D, Cat. No.: BT623B/CF), was diluted to 600 ng/ml, and was added into the microtiter plate at 50 μl/well. The antibodies (81H10, 86E9, 107H7, hz81H10.4, Amhz81H10.4.30 and Amhz81H10.4.49) prepared as described above were gradiently diluted with a total of 8 or 12 dilution points starting from the highest concentration, and then added to the microtiter plate at 50 μl/well, and incubated in PBS on ice for 30 min. Then, 50 ul of antigen solution was added to the microtiter plate, in which the final antigen concentration was 300 ng/ml. The plate containing the antigen-antibody mixture was incubated for 90 min. After three washes with PBS, the supernatant was discarded, and Avidin-HRP (Invitrogen) diluted at 1:10000 was added at 100 μl/well, then incubated at room temperature for 30 min. PBS was used to wash the plate six times. Then TMB chromogen solution (solarbio) was added at 100 ul/well to allow for chromogenic reaction for 1 min, then the reaction was terminated with the addition of stop solution (solarbio) at 100 ul/well.

[2] = target: T3, hAng2-Fc protein (Sino Biological, Cat No.: 10691-H02H) (human, UniProt O15123 19-496); experiment: blocking assay by flow cytometry: antibody titrated against hAng2-Fc (2 ug/ml final); blocked binding to human Tie2 on 293-tie2 cells; anti-human IgG-PE, MFI
T3 construct: Bought fusion; also called human Ang2-Fc; human Ang2-hFc; not shown: human Fc of the bought fusion protein
T3 sequence: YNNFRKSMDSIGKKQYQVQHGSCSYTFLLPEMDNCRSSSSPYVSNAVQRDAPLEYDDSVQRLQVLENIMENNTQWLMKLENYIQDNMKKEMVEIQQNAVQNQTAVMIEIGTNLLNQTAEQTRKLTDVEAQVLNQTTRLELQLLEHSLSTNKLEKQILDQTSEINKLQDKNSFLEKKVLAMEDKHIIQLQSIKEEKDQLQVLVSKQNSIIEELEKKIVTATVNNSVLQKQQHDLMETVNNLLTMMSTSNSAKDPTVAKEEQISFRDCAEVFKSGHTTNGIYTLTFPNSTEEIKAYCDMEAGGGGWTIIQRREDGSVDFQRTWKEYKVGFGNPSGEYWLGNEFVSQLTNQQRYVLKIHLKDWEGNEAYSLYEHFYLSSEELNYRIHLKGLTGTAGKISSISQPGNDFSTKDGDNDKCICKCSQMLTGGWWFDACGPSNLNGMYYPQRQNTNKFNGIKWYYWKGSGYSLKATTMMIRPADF
Description: The ability of hz81H10.4 and the control antibody Nesvacumab to block the binding of human Ang2-hFc to Tie2 on the cell surface was detected by flow cytometry (FACS).
The antigen hAng2-Fc protein (Sino Biological, Cat No.: 10691-H02H) was diluted to 4 μg/ml, and added to the plate wells at 50 μl/well. Antibodies (hz81H10.4 and control antibody Nesvacumab) prepared as described above were diluted at 2-fold with a total of 12 dilution points starting from the highest concentration of 800 nM, and added to the plate wells at 50 μl/well, and incubated in PBS on ice for 30 min, where the final concentration of the antigen was 2 μg/ml and the highest concentration of antibody was 400 nM. […] The cells were centrifuged at 300 g for 5 min, and after the supernatant was discarded, the cells were resuspended in the antigen-antibody mixture. The cells were incubated on ice for 30 min, and added with PBS at 100 μl/well, centrifuged at 300 g for 5 min, and washed with PBS once. A 100 μl of goat anti-human IgG-PE (Southern Biotech, Cat. No. 2040-09) diluted at 1:200 was added to each well and placed in an ice bath for 20 min. PBS was added at 100 μl/well, and the cells were centrifuged at 300 g for 5 min, and washed once with PBS. The cells were resuspended in 100 μl PBS and the fluorescence signals of the cells were detected by a flow cytometer (BD Biosciences). […]

B1: humanized antibody hz81H10.4 (antibody, human IgG1, kappa, V domains shown)
VH: EVQLVESGGGLVKPGGSLRLSCAASGFTFSNYWMNWVRQAPGKGLEWVAEIRLKSNNYATHYAESVKGRFTISRDVSKNTVYLQMNSLKTEDTAVYYCTDTAPFAYWGQGTLVTVSS
VL: DIQMTQSPSSLSASVGDRVTITCKASQDVGTDVAWYQQKPGKAPKLLIYWASTRHTGVPSRFSGSGSGTDFTLTISSLQPEDFATYYCQQYSSYPLTFGGGTKVEIKR
notes: also called IBI335
Question: How did the Kd (human Ang2) turn out when B1 was run?
Answer: The Kd was 1.25 nM.

Question: What about the IC50 [1] of the same binder?
Answer: Its IC50 is 0.728 nM.

Question: And the IC50 [2]?
Answer: The IC50 was 2.3 nM.
